In patent US20110151454:

B1: gst-PPM1H (protein)
chain: MLTRVKSAVANFMGGIMAGSSGSEHGGGSCGGSDLPLRFPYGRPEFLGLSQDEVECSADHIARPILILKETRRLPWATGYAEVINAGKSTHNEDQASCEVLTVKKKAGAVTSTPNRNSSKRRSSLPNGEGLQLKENSESEGVSCHYWSLFDGHAGSGAAVVASRLLQHHITEQLQDIVDILKNSAVLPPTCLGEEPENTPANSRTLTRAASLRGGVGAPGSPSTPPTRFFTEKKIPHECLVIGALESAFKEMDLQIERERSSYNISGGCTALIVICLLGKLYVANAGDSRAIIIRNGEIIPMSSEFTPETERQRLQYLAFMQPHLLGNEFTHLEFPRRVQRKELGKKMLYRDFNMTGWAYKTIEDEDLKFPLIYGEGKKARVMATIGVTRGLGDHDLKVHDSNIYIKPFLSSAPEVRIYDLSKYDHGSDDVLILATDGLWDVLSNEEVAEAITQFLPNCDPDDPHRYTLAAQDLVMRARGVLKDRGWRISNDRLGSGDDISVYVIPLIHGNKLS
B2: flag-PPM1H (protein)
chain: MLTRVKSAVANFMGGIMAGSSGSEHGGGSCGGSDLPLRFPYGRPEFLGLSQDEVECSADHIARPILILKETRRLPWATGYAEVINAGKSTHNEDQASCEVLTVKKKAGAVTSTPNRNSSKRRSSLPNGEGLQLKENSESEGVSCHYWSLFDGHAGSGAAVVASRLLQHHITEQLQDIVDILKNSAVLPPTCLGEEPENTPANSRTLTRAASLRGGVGAPGSPSTPPTRFFTEKKIPHECLVIGALESAFKEMDLQIERERSSYNISGGCTALIVICLLGKLYVANAGDSRAIIIRNGEIIPMSSEFTPETERQRLQYLAFMQPHLLGNEFTHLEFPRRVQRKELGKKMLYRDFNMTGWAYKTIEDEDLKFPLIYGEGKKARVMATIGVTRGLGDHDLKVHDSNIYIKPFLSSAPEVRIYDLSKYDHGSDDVLILATDGLWDVLSNEEVAEAITQFLPNCDPDDPHRYTLAAQDLVMRARGVLKDRGWRISNDRLGSGDDISVYVIPLIHGNKLS
B3: flag-PPM1H-H153L (protein)
chain: MLTRVKSAVANFMGGIMAGSSGSEHGGGSCGGSDLPLRFPYGRPEFLGLSQDEVECSADHIARPILILKETRRLPWATGYAEVINAGKSTHNEDQASCEVLTVKKKAGAVTSTPNRNSSKRRSSLPNGEGLQLKENSESEGVSCHYWSLFDGLAGSGAAVVASRLLQHHITEQLQDIVDILKNSAVLPPTCLGEEPENTPANSRTLTRAASLRGGVGAPGSPSTPPTRFFTEKKIPHECLVIGALESAFKEMDLQIERERSSYNISGGCTALIVICLLGKLYVANAGDSRAIIIRNGEIIPMSSEFTPETERQRLQYLAFMQPHLLGNEFTHLEFPRRVQRKELGKKMLYRDFNMTGWAYKTIEDEDLKFPLIYGEGKKARVMATIGVTRGLGDHDLKVHDSNIYIKPFLSSAPEVRIYDLSKYDHGSDDVLILATDGLWDVLSNEEVAEAITQFLPNCDPDDPHRYTLAAQDLVMRARGVLKDRGWRISNDRLGSGDDISVYVIPLIHGNKLS
B4: gst-PPM1J (protein)
chain: MLNRVRSAVAHLVSSGGAPPPRPKSPDLPNAASAPPAAAPEAPRSPPAKAGSGSATPAKAVEARASFSRPTFLQLSPGGLRRADDHAGRAVQSPPDTGRRLPWSTGYAEVINAGKSRHNEDQACCEVVYVEGRRSVTGVPREPSRGQGLCFYYWGLFDGHAGGGAAEMASRLLHRHIREQLKDLVEILQDPSPPPLCLPTTPGTPDSSDPSHLLGPQSCWSSQKEVSHESLVVGAVENAFQLMDEQMARERRGHQVEGGCCALVVIYLLGKVYVANAGDSRAIIVRNGEIIPMSREFTPETERQRLQLLGFLKPELLGSEFTHLEFPRRVLPKELGQRMLYRDQNMTGWAYKKIELEDLRFPLVCGEGKKARVMATIGVTRGLGDHSLKVCSSTLPIKPFLSCFPEVRVYDLTQYEHCPDDVLVLGTDGLWDVTTDCEVAATVDRVLSAYEPNDHSRYTALAQALVLGARGTPRDRGWRLPNNKLGSGDDISVFVIPLGGPGSYS
B5: λ-phosphatase (protein)
chain: MRYYEKIDGSKYRNIWVVGDLHGCYTNLMNKLDTIGFDNKKDLLISVGDLVDRGAENVECLELITFPWFRAVRGNHEQMMIDGLSERGNVNHWLLNGGGWFFNLDYDKEILAKALAHKADELPLIIELVSKDKKYVICHADYPFDEYEFGKPVDHQQVIWNRERISNSQNGIVKEIKGADTFIFGHTPAVKPLKFANQMYIDTGAVFCGNLTLIQVQGEGA

Experiments:
[1] = biological target: HA-tagged p27 phosphorylated at T187 by CDK2/cyclinA, P46527
[2] = biological target: HA-SKP2 phosphorylated in vitro by AKT (32P-SKP2), Q13309
[3] = biological target: SKP2 S64 phospho-peptide
[4] = biological target: SKP2 S72 phospho-peptide
[5] = biological target: p27 T157 phospho-peptide
[6] = biological target: SKP2 S75 phospho-peptide
[7] = biological target: p27 S10 phospho-peptide
[8] = biological target: p27 T187 phospho-peptide

Chain of HA-tagged p27 phosphorylated at T187 by CDK2/cyclinA, P46527 (P46527 whole entry, looked up): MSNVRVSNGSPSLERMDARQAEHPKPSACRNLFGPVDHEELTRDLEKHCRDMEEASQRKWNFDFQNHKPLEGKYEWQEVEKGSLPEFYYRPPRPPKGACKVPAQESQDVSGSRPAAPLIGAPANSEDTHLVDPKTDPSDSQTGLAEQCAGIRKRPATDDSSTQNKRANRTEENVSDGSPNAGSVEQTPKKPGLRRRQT
Chain of HA-SKP2 phosphorylated in vitro by AKT (32P-SKP2), Q13309 (Q13309 whole entry, looked up): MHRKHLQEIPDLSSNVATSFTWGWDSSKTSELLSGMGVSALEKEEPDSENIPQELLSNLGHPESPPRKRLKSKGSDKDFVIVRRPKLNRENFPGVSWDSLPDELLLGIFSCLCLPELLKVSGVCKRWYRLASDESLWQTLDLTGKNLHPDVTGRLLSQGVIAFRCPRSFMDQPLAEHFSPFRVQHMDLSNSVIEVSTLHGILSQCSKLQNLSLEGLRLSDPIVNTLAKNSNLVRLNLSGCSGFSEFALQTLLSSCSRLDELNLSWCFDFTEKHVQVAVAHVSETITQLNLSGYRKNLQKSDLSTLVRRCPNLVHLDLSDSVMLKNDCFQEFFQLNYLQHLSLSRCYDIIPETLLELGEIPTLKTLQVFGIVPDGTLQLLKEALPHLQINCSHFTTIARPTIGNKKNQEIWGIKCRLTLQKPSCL

Row | Protein | dephosphorylation of p27 at S10 (phosphatase reaction, Western blot) [1] | dephosphorylation of p27 at T187 (phosphatase reaction, Western blot) [1] | removal of 32P from AKT-phosphorylated SKP2 [2] | other results
1 | B1 | Neither enzyme exhibited activity at S10 | only PPM1H was effective at dephosphorylating p27 at T187 |  | 
2 | B2 | PPM1H exhibited no activity at the S10 site in this assay | Wildtype PPM1H but not PPM1H-H153L dephosphorylated p27 at T187 | PPM1H lacked activity | phosphate release from synthetic phospho-peptide (Pi ColorLock Gold assay) [3]: No evidence for PPM1H mediated dephosphorylation of the SKP2 phospho-peptides was observed; phosphate release from synthetic phospho-peptide (Pi ColorLock Gold assay) [4]: No evidence for PPM1H mediated dephosphorylation of the SKP2 phospho-peptides was observed; phosphate release from synthetic phospho-peptide (Pi ColorLock Gold assay) [5]: Liberation of phosphate was observed with the p27 peptides, most notably with the T187 peptide; phosphate release from synthetic phospho-peptide (Pi ColorLock Gold assay) [6]: No evidence for PPM1H mediated dephosphorylation of the SKP2 phospho-peptides was observed; phosphate release from synthetic phospho-peptide (Pi ColorLock Gold assay) [7]: Liberation of phosphate was observed with the p27 peptides, most notably with the T187 peptide; phosphate release from synthetic phospho-peptide (Pi ColorLock Gold assay) [8]: Liberation of phosphate was observed with the p27 peptides, most notably with the T187 peptide
3 | B3 |  | Wildtype PPM1H but not PPM1H-H153L dephosphorylated p27 at T187 |  | 
4 | B4 | Neither enzyme exhibited activity at S10 | only PPM1H was effective at dephosphorylating p27 at T187 |  | 
5 | B5 |  |  | γ-phosphatase was able to dephosphorylate SKP2 | 
